Laboratory results published in article doi:10.1101/2021.08.16.456468.

Target: DnaD^7A, purified (B. subtilis) (UniProt P39787)
Test: SEC

stoichiometry N: 4
Substance: DnaD^7A, purified (from UniProt P39787 1-232) (natural protein)
